Source: patent US20250034275A1 (CHIA TAI TIANQING PHARMACEUTICAL GROUP, published 2025)
Like-named read-outs stand apart in the source and are kept apart here.

Columns and labels:
[1] = target: human Trop-2 (on the surface of human cell lines) (human) (UniProt P09758); assay: flow cytometry, HCC1806 cells, antibody at 3 ug/mL
[2] = target: human Trop-2 (on the surface of human cell lines) (human) (UniProt P09758); assay: flow cytometry, HUVEC cells, antibody at 3 ug/mL
[3] = target: human Trop-2 (on the surface of human cell lines) (human) (UniProt P09758); assay: flow cytometry, NCI-H322 cells, antibody at 3 ug/mL
[4] = target: Macaque Trop-2-His (macaque); assay: ELISA, plate-coated macaque Trop-2-His
[5] = target: human Trop-2 (on the surface of human cell lines) (human) (UniProt P09758); assay: flow cytometry, HCC1806 cells
[6] = target: human Trop-2 (on the surface of human cell lines) (human) (UniProt P09758); assay: flow cytometry, OVCAR-3 cells
[7] = target: human Trop-2 (on the surface of human cell lines) (human) (UniProt P09758); assay: flow cytometry, HCC38 cells
[8] = target: human Trop-2 (on the surface of human cell lines) (human) (UniProt P09758); assay: flow cytometry, HCC1806 cells; remark: listed apart in the source
[9] = target: Macaque Trop-2-His (macaque); assay: ELISA, plate-coated macaque Trop-2-His; remark: listed apart in the source
[10] = target: human Trop-2 (on the surface of human cell lines) (human) (UniProt P09758); assay: flow cytometry, Capan-1 cells, antibody at 3 ug/mL
[11] = target: human Trop-2 (on the surface of human cell lines) (human) (UniProt P09758); assay: flow cytometry, OVCAR-3 cells; remark: listed apart in the source
[12] = target: human Trop-2 (on the surface of human cell lines) (human) (UniProt P09758); assay: flow cytometry, HCC38 cells; remark: listed apart in the source
human Trop-2-His [13] = target: T1, human Trop-2-His (human, UniProt P09758 27-274, limits assumed); assay: SPR (Biacore 8K), antibody captured, Trop-2-His as analyte
T1 construct: by analogy with the macaque construct it is probably the extracellular domain with a His tag; also called Trop-2-His protein
T1 sequence: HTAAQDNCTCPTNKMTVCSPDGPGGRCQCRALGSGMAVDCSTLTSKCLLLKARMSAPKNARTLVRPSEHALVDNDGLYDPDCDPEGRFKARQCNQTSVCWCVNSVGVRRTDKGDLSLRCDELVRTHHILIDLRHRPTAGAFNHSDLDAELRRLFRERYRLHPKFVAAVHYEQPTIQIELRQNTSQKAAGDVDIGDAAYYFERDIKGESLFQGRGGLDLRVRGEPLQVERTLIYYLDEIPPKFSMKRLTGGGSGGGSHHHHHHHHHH
How it was run: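 Antibody captured on anti-human IgG-coated CM5 chip; human Trop-2-His flowed as analyte with real-time association/dissociation recording, 3M MgCl₂ regeneration. Double-subtracted curves fit to Langmuir 1:1 model giving ka, kd and KD.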

[14] = target: human Trop-2 (on the surface of human cell lines) (human) (UniProt P09758); assay: cell-based or functional assay
[15] = target: human Trop-2 (on the surface of human cell lines) (human) (UniProt P09758); assay: flow cytometry, PC-3 cells, antibody at 3 ug/mL
[16] = target: Macaque Trop-2-His (macaque); assay: ELISA, plate-coated macaque Trop-2-His; remark: listed apart in the source
[17] = target: human Trop-2 (on the surface of human cell lines) (human) (UniProt P09758); assay: flow cytometry, HCC38 cells; remark: listed apart in the source
[18] = target: human Trop-2 (on the surface of human cell lines) (human) (UniProt P09758); assay: flow cytometry, OVCAR-3 cells, antibody at 3 ug/mL
human Trop-2-His [19] = target: T1, human Trop-2-His; assay: ELISA, plate-coated human Trop-2-His
[20] = target: human Trop-2 (on the surface of human cell lines) (human) (UniProt P09758); assay: flow cytometry, HCC1806 cells; remark: listed apart in the source
[21] = target: human Trop-2 (on the surface of human cell lines) (human) (UniProt P09758); assay: flow cytometry, HCC38 cells, antibody at 3 ug/mL

B1: TINA (antibody, INN chains, looked up, V domains shown)
VH: QVQLVQSGAEVKKPGASVKVSCKASGYTFTTAGMQWVRQAPGQGLEWMGWINTHSGVPKYAEDFKGRVTISADTSTSTAYLQLSSLKSEDTAVYYCARSGFGSSYWYFDVWGQGTLVTVSS
VL: DIQMTQSPSSLSASVGDRVTITCKASQDVSTAVAWYQQKPGKAPKLLIYSASYRYTGVPSRFSGSGSGTDFTLTISSLQPEDFAVYYCQQHYITPLTFGQGTKLEIK
- MFI [1]: 1.66e+06
- Positive rate (%) [1]: 99.9%
- Ratio (MFI of TINA to MFI of the IgG1 control) [1]: 102
- MFI [2]: 125000
- Positive rate (%) [2]: 22.9%
- Ratio (MFI of TINA to MFI of the IgG1 control) [2]: 6.1
- MFI [3]: 2.83e+06
- Positive rate (%) [3]: 100%
- Ratio (MFI of TINA to MFI of the IgG1 control) [3]: 133
- EC50 [4]: 0.063 nM
- EC50 [5]: 0.73 nM
- EC50 [6]: 1.28 nM
- EC50 [7]: 1.04 nM
- EC50 [8]: 0.84 nM
- EC50 [9]: 0.046 nM
- MFI [10]: 1.21e+06
- Positive rate (%) [10]: 98.4%
- Ratio (MFI of TINA to MFI of the IgG1 control) [10]: 18.4
- EC50 [11]: 1.29 nM
- EC50 [12]: 1.21 nM
- Kd (human Trop-2-His [13]): 12.5 nM
- koff (human Trop-2-His [13]): 0.00239 s⁻¹
- kon (human Trop-2-His [13]): 191000 M⁻¹ s⁻¹
- ADCC reporter (Jurkat-CD16a v158-NFAT-luciferase), target cell H322, EC50 [14]: 0.27 nM
- ADCC reporter (Jurkat-CD16a v158-NFAT-luciferase), target cell HCC1806, EC50 [14]: 0.46 nM
- ADCC, PBMC killing (LDH), H322, EC50 [14]: 0.02 nM
- ADCC, PBMC killing (LDH), H322, Maximum killing (%) [14]: 49.8%
- ADCC, PBMC killing (LDH), HCC1806, EC50 [14]: 0.07 nM
- ADCC, PBMC killing (LDH), HCC1806, Maximum killing (%) [14]: 38.5%
- MFI [15]: 68500
- Positive rate (%) [15]: 69.1%
- Ratio (MFI of TINA to MFI of the IgG1 control) [15]: 7.7
- EC50 [16]: 0.106 nM
- EC50 [17]: 0.79 nM
- MFI [18]: 182000
- Positive rate (%) [18]: 99%
- Ratio (MFI of TINA to MFI of the IgG1 control) [18]: 15.4
- EC50 (human Trop-2-His [19]): 0.083 nM
- EC50 (human Trop-2-His [19]; record 2): 0.166 nM
- EC50 [20]: 1.44 nM
- MFI [21]: 3.85e+06
- Positive rate (%) [21]: 99.3%
- Ratio (MFI of TINA to MFI of the IgG1 control) [21]: 119
